Experimental findings from patent US11702475B2, “Cysteine engineered fibronectin type III domain binding molecules” (Janssen Biotech, Inc., priority 2013, dated 2023) are described below.

Several values for one entry are separate records, joined by “and”; a condition that tells them apart may be missing. Equal entries are not always repeated.

Data set [1] deals with EGFR-overexpressing human tumor cell line H1573. Nature of the data set: Cytotoxicity assay in H1573 cells. The data set is classed as cell-based. The note with it: cysteine variants conjugated to VC-MMAF, Cell TiterGlo at 70 hours, read-out: IC50. As for the experimental part:
Cell killing was assessed by measuring viability of the EGFR-overexpressing human tumor cell line H1573 following exposure to the cysteine variant-cytotoxin conjugates. Cells were plated in black-well, clear bottomed, tissue culture-treated plates (Falcon 353219) at 7000/well in 100 μL/well of phenol red free RPMI media (Gibco 11835-030) with 5% fetal bovine serum (Gibco). Cells were allowed to attach overnight at 37° C. in a humidified 5% CO2 atmosphere. Medium was aspirated from 96-well plate and cells were treated with 50 uL of fresh media and 50 uL of 2× inhibitor made up in fresh media. Cell viability was determined by an endpoint assay with Cell TiterGlo (Promega) at 70 hours. IC50 values were determined by fitting data to the equation for a sigmoidal dose response with variable slope using GraphPad Prism 5 (GraphPad Software). Table 11 reports IC50 values obtained from analysis of the CellTiter Glo data.
Conjugates consisting of ECB147 cysteine variants, 83v2-cys, or Tencon-cys linked to a cytotoxic tubulin inhibitor from the auristatin family (FIG. 2) were tested for target-dependent cytotoxicity in cancer cells. The inhibitor was linked to the cysteine-containing protein via a non-cleavable PEG4 linker or an enzyme-cleavable valine-citrulline or valine-lysine linker. Cell killing was assessed by measuring viability of the EGFR-overexpressing human tumor cell lines H1573 and A431 as well as the EGFR-negative tumor cell line MDA-MB-435 following exposure to the protein-cytotoxin conjugates using the procedure described in Example 4.
Background: ATP-based viability assays read luminescence as a measure of living cells.

Data set [2] in a line: Thermal stability of cysteine-NEM conjugates by DSC. In kind it is physicochemical. As to conditions: for First Scan Tm: DSC 25-100 °C, 1 °C per minute; for Second Scan Tm: second identical scan. How it is done: The thermal stability of cysteine-NEM conjugates was assessed by differential scanning calorimetry (DSC). The only the conjugates tested were those determined to express at high levels, conjugate efficiently, and retain EGFR binding. Additionally, cysteine variants within the BC and FG loops were excluded. Stability data was generated by heating a 400 μL aliquot of the variant from 25° C. to 100° C. at a scan rate of 1° C. per minute in a VP-DSC instrument (MicroCal). A second identical scan was completed on the sample in order to assess the reversibility of thermal folding/unfolding. Data was fitted to a 2-state unfolding model in order to calculate the melting temperature (Table 10).

Data set [3] in a line: Analytical size exclusion chromatography (percent monomer). The data set is classed as physicochemical. The note with it: NEM-conjugated cysteine variants; SEC, Abs280 monomer region 5.5-6 minutes vs oligomer region 4-5.3 minutes. As for the experimental part:
Size exclusion chromatography was used to determine the aggregation state of the FN3 domains binding EGFR. Aliquots (10 μL) of each purified FN3 domain were injected onto a Superdex 75 5/150 column (GE Healthcare) at a flow rate of 0.3 mL/min in a mobile phase of PBS pH 7.4. Elution from the column was monitored by absorbance at 280 nm.
The percent monomer for each protein was determined by integrating the Abs280 signal and comparing the peak in the monomer region (5.5-6 minutes) to the peaks in the oligomer region (4-5.3 minutes).
On the technique in general: In gel filtration, larger molecules generally elute earlier.

B1: WT: Tencon (SEQ ID NO: 265) cysteine variant conjugated to VC-MMAF as a negative control (conjugate)
chain: LPAPKNLVVSEVTEDSLRLSWTAPDAAFDSFLIQYQESEKVGEAINLTVPGSERSYDLTGLKPGTEYTVSIYGVKGGHRSNPLSAEFTTGGHHHHHHC
modifications: VC-MMAF conjugated via cysteine; Tencon FN3 scaffold
As for B1, the half-inhibitory concentration (IC50) (usually the concentration needed to halve the response being measured) in data set [1] is 146 nM and 166 nM.

B2: V9C (conjugate)
chain: LPAPKNLVCSEVTEDSARLSWDDPWAFYESFLIQYQESEKVGEAIVLTVPGSERSYDLTGLKPGTEYTVSIYGVHNVYKDTNMRGLPLSAIFTT
modifications: left off: small tags and cut ends
Take B2: in data set [2], the “First Scan Tm” value was 46 °C and the “Second Scan Tm” value turned out to be 46 °C. The Percent monomer result in data set [3] is given as “double peak”.

B3: T81C (conjugate)
chain: LPAPKNLVVSEVTEDSARLSWDDPWAFYESFLIQYQESEKVGEAIVLTVPGSERSYDLTGLKPGTEYTVSIYGVHNVYKDCNMRGLPLSAIFTT
modifications: left off: small tags and cut ends
B3 gave a Percent monomer in data set [3] of 86%.

B4: E39C (conjugate)
chain: LPAPKNLVVSEVTEDSARLSWDDPWAFYESFLIQYQESCKVGEAIVLTVPGSERSYDLTGLKPGTEYTVSIYGVHNVYKDTNMRGLPLSAIFTT
modifications: left off: small tags and cut ends
Consider B4, for which, in data set [2], the “First Scan Tm” value came to 67 °C and the “Second Scan Tm” value stood at 69 °C. In data set [3], this molecule yielded a Percent monomer of 100%.

B5: G85C (conjugate)
chain: LPAPKNLVVSEVTEDSARLSWDDPWAFYESFLIQYQESEKVGEAIVLTVPGSERSYDLTGLKPGTEYTVSIYGVHNVYKDTNMRCLPLSAIFTT
modifications: left off: small tags and cut ends
On to B5, for which the Percent monomer in data set [3] is on record as 95%.

B6: P50C (conjugate)
chain: LPAPKNLVVSEVTEDSARLSWDDPWAFYESFLIQYQESEKVGEAIVLTVCGSERSYDLTGLKPGTEYTVSIYGVHNVYKDTNMRGLPLSAIFTT
modifications: left off: small tags and cut ends
Consider B6, for which, in data set [2], the “First Scan Tm” value turned out to be 63 °C and the “Second Scan Tm” value turned out to be 65 °C. In addition, the Percent monomer in data set [3] was 100%.

B7: M83C (conjugate)
chain: LPAPKNLVVSEVTEDSARLSWDDPWAFYESFLIQYQESEKVGEAIVLTVPGSERSYDLTGLKPGTEYTVSIYGVHNVYKDTNCRGLPLSAIFTT
modifications: left off: small tags and cut ends
B7 returned a Percent monomer in data set [3] of 91%.

B8: K5C (conjugate)
chain: LPAPCNLVVSEVTEDSARLSWDDPWAFYESFLIQYQESEKVGEAIVLTVPGSERSYDLTGLKPGTEYTVSIYGVHNVYKDTNMRGLPLSAIFTT
modifications: left off: small tags and cut ends
In data set [3], B8 displayed a Percent monomer of 100%.

B9: P63C (conjugate)
chain: LPAPKNLVVSEVTEDSARLSWDDPWAFYESFLIQYQESEKVGEAIVLTVPGSERSYDLTGLKCGTEYTVSIYGVHNVYKDTNMRGLPLSAIFTT
modifications: left off: small tags and cut ends
As for B9, in data set [2], the “First Scan Tm” value was found to be 60 °C and the “Second Scan Tm” value was determined as 62 °C. Besides, the Percent monomer in data set [3] was found to be 92%.

B10: V12C (conjugate)
chain: LPAPKNLVVSECTEDSARLSWDDPWAFYESFLIQYQESEKVGEAIVLTVPGSERSYDLTGLKPGTEYTVSIYGVHNVYKDTNMRGLPLSAIFTT
modifications: left off: small tags and cut ends
For the molecule B10, in data set [2], the “First Scan Tm” value amounted to 58 °C and the “Second Scan Tm” value came to 58 °C. In data set [3], this molecule yielded a Percent monomer of 66%.

B11: V49C (conjugate)
chain: LPAPKNLVVSEVTEDSARLSWDDPWAFYESFLIQYQESEKVGEAIVLTCPGSERSYDLTGLKPGTEYTVSIYGVHNVYKDTNMRGLPLSAIFTT
modifications: left off: small tags and cut ends
For B11, in data set [2], the “First Scan Tm” value stood at 54 °C and the “Second Scan Tm” value worked out at 55 °C. The Percent monomer in data set [3] came out at 88%.

B12: G51C (conjugate)
chain: LPAPKNLVVSEVTEDSARLSWDDPWAFYESFLIQYQESEKVGEAIVLTVPCSERSYDLTGLKPGTEYTVSIYGVHNVYKDTNMRGLPLSAIFTT
modifications: left off: small tags and cut ends
With B12, in data set [2], the “First Scan Tm” value is 61 °C and the “Second Scan Tm” value turned out to be 61 °C. In addition, the Percent monomer in data set [3] is recorded as 96%.

B13: P4C (conjugate)
chain: LPACKNLVVSEVTEDSARLSWDDPWAFYESFLIQYQESEKVGEAIVLTVPGSERSYDLTGLKPGTEYTVSIYGVHNVYKDTNMRGLPLSAIFTT
modifications: left off: small tags and cut ends
The molecule B13 returned a Percent monomer in data set [3] of 100%.

B14: R84C (conjugate)
chain: LPAPKNLVVSEVTEDSARLSWDDPWAFYESFLIQYQESEKVGEAIVLTVPGSERSYDLTGLKPGTEYTVSIYGVHNVYKDTNMCGLPLSAIFTT
modifications: left off: small tags and cut ends
In data set [3], B14 gave a Percent monomer of 100%.

B15: P87C (conjugate)
chain: LPAPKNLVVSEVTEDSARLSWDDPWAFYESFLIQYQESEKVGEAIVLTVPGSERSYDLTGLKPGTEYTVSIYGVHNVYKDTNMRGLCLSAIFTT
modifications: left off: small tags and cut ends
In data set [3], B15 had a Percent monomer of 98%.

B16: N82C (conjugate)
chain: LPAPKNLVVSEVTEDSARLSWDDPWAFYESFLIQYQESEKVGEAIVLTVPGSERSYDLTGLKPGTEYTVSIYGVHNVYKDTCMRGLPLSAIFTT
modifications: left off: small tags and cut ends
Turning to B16, in data set [3], the Percent monomer was determined as 100%.

B17: E29C (conjugate)
chain: LPAPKNLVVSEVTEDSARLSWDDPWAFYCSFLIQYQESEKVGEAIVLTVPGSERSYDLTGLKPGTEYTVSIYGVHNVYKDTNMRGLPLSAIFTT
modifications: left off: small tags and cut ends
Turning to B17, in data set [2], the “First Scan Tm” value was 63 °C and the “Second Scan Tm” value was 66 °C. Further, the Percent monomer in data set [3] worked out at 85%.

B18: T13C (conjugate)
chain: LPAPKNLVVSEVCEDSARLSWDDPWAFYESFLIQYQESEKVGEAIVLTVPGSERSYDLTGLKPGTEYTVSIYGVHNVYKDTNMRGLPLSAIFTT
modifications: left off: small tags and cut ends
For the molecule B18, in data set [2], the “First Scan Tm” value is 63 °C and the “Second Scan Tm” value stood at 63 °C. In data set [3], this molecule registered a Percent monomer of 82%.

B19: L86C (conjugate)
chain: LPAPKNLVVSEVTEDSARLSWDDPWAFYESFLIQYQESEKVGEAIVLTVPGSERSYDLTGLKPGTEYTVSIYGVHNVYKDTNMRGCPLSAIFTT
modifications: left off: small tags and cut ends
B19 came in with a Percent monomer in data set [3] of 83%.

B20: G42C (conjugate)
chain: LPAPKNLVVSEVTEDSARLSWDDPWAFYESFLIQYQESEKVCEAIVLTVPGSERSYDLTGLKPGTEYTVSIYGVHNVYKDTNMRGLPLSAIFTT
modifications: left off: small tags and cut ends
On to B20, for which, in data set [2], the “First Scan Tm” value turned out to be 65 °C and the “Second Scan Tm” value is 67 °C. Also, the Percent monomer in data set [3] turned out to be 87%.

B21: R18C (conjugate)
chain: LPAPKNLVVSEVTEDSACLSWDDPWAFYESFLIQYQESEKVGEAIVLTVPGSERSYDLTGLKPGTEYTVSIYGVHNVYKDTNMRGLPLSAIFTT
modifications: left off: small tags and cut ends
Turning to B21, in data set [2], the “First Scan Tm” value stood at 62 °C and the “Second Scan Tm” value was 62 °C. In addition, in data set [3], the Percent monomer is reported as 93%.
